Source: patent publication EP1752160A2 (Mannkind Corporation, dated 2007)

Columns and labels:
HLA-A2.1 [1] = target: T1, HLA-A2.1 (human); assay: T2 cell HLA-A2.1 stabilisation assay, flow cytometry
T1 construct: also called HLA-A*0201; HLA-A0201

HLA-A2.1 [2] = target: T1, HLA-A2.1; assay: T2 cell HLA-A*0201 stabilisation assay, flow cytometry
HLA-A2.1 [3] = target: T1, HLA-A2.1; assay: HLA-A2 binding assay on T2 cells, flow cytometry

binding result (HLA-A2.1 [3]) | Binder | other results
– | KASEKIFYV (Synthetic 9-mer of SSX-2) [SSX-2 41-49] | binding result (HLA-A2.1 [1]): binds
– | MMNDQLMFL (9-mer of prostate specific membrane antigen) [PSMA663-671] | binding result (HLA-A2.1 [2]): binds
binds | LPWHRLFLL (Synthetic 9-mer of tyrosinase; also called Tyr 208-216) [tyrosinase208-216] | –
binds | FLPWHRLFL (Synthetic 9-mer of tyrosinase; also called Tyr 207-215) [tyrosinase207-215] | –
